# Reference: the supplement of paper PMC9170038
# Legend:
# [1] = test system: MS2 coat protein; assay: apparent KD of MS2 coat protein, switch OFF state (with FMN for OFF switches, without FMN for ON switches); designed switch direction (-1 OFF switch, 1 ON switch): 1; higher = weaker reporter binding; settings: FMN input: 0 or 200 uM; Eterna round: R93 (includes R88 designs)
# How it was run: (§1)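 Apparent KD is reported per design as the median of normalised binding-curve fits across its clusters. The RNA switches were made by on-chip transcription from Illumina sequencing clusters. SNAP-549-labelled MS2 coat protein was then added in twofold steps (0.7 or 1.5 nM to 3 µM; 0.8–1.5 h to 10–20 min per step) in 100 mM Tris-HCl pH 7.5, 80 mM KCl, 4 mM MgCl2, without or with constant ligand.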
# [2] = test system: MS2 coat protein; assay: apparent KD of MS2 coat protein, switch ON state; designed switch direction (-1 OFF switch, 1 ON switch): 1; higher = weaker reporter binding; settings: FMN input: 0 or 200 uM; Eterna round: R93 (includes R88 designs)
# How it was run: as §1
Sequence,apparent KD of MS2 coat protein [1] [nM],apparent KD of MS2 coat protein [2] [nM]
AACGUGACGACAUAGGAUAUGUACACACGUACAUGAGGAUCACCCAUGUGACUAGUAAUCGUGUGGCAGAAGGGUGAAGUCUCGA [Anzasousra],31.4,21.4
AAGAAACAUGAGGAUCACCCAUGUAAAAUAAACACAGGAUAUGCGAAAAGAAACAAAGAAGCAGAAGGGUGAAGAA [Mat - Same State 1 - Tesla mod - 56],36.2,16.9
AAGAAACAUGAGGAUCACCCAUGUAAGAUAAACACAGGAUAUGCGAAAAGAACAAAAGAAGCAGAAGGGUGAAGAA [Mat - Same State 1 - Tesla mod - D145],42.4,25.4
AAGAAACAUGAGGAUCACCCAUGUAAGAUAAACACAGGAUAUGCGAAAGAAAUAAAUAAAGCAGAAGGGUGAAGAA [Mat - Same State 1 - Tesla mod - D148],44.5,22.4
AAGAAACAUGAGGAUCACCCAUGUAGAAAUAUGGGAGGAUAUACGAAGACGAAAGUCGAAGUAGAAGGCCUAAGAA [Mat - Same State 1 - Meechl mod - D131],71.9,15.1
AAGAAACAUGAGGAUCACCCAUGUCGAGAGAGACGAGGAUAUCUGAAUCGAUUAGAUUACGGAGAAGGCGUGAAAA [Same State 1.2 (Same State of Confusion2 - minimal change )],30.4,18.3
AAGAAACAUGAGGAUCACCCAUGUGAUAAUAUGGGAGGAUAUACAAAGACGAAAGUCGAAGUAGAAGGCCUAUGAA [Garnet 43],62,36.8
AAUAAACAUGAGGAUCACCCAUGUGAAAAUAUGGGAGGAUAUAGGAAAAAAAAAAAAAAACUAGAAGGCCCAAAAA [SS! 1 MT 12],138,75.3
AAUAACUAUAACUAGGAUAUCGGAAAUAAGACAUGAGGAUCACCCAUGUAAUAAGACAAAAUAUACGAGAAGGAGUAGGGUGAAA [JR_SS002_Sub012],53.2,61.2
AAUAGACAUGAGGAUCACCCAUGUAGAAUUAUGGGAGGAUAUACAAAGACGAGAGUCAGAGUAGAAGGCCUAGGAC [salish99-ss1-151],54,20.7
AAUAUAUUAAGUGAGGAUAUCAAGAAAAAAACAUGAGGAUCACCCAUGUGGGAAACACAAUAGGGUGAGAAGGUACUUAAUAUAU [Samwise Clockwise 18 - Jieux - Same State 2],8.08,10200
AAUAUAUUAUUUAAGGAUAUCAUAGGAAACACAUGAGGAUCACCCAUGUGGGAGACUUGGACGGGUGAGAAGGUGGAUAAUAUAU [Samwise Clockwise 37 - Jieux - Same State 2],20.7,19.2
AAUCCAACUAGUCAGGAUAUCAGGCGUAAGACAUGAGGAUCACCCAUGUACUUAGUACAAGUAACUGAGAAGGGACAGGGUGACC [JR_SS002_Sub409],75.5,75.4
ACAAAACAUGAGGAUCACCCAUGUCAAGCUAAUCAAGGAUAUGGGAGCGGUCCGGUGCGAUCAGAAGGUGAUUAGA [Gecelear],53.2,99
ACAAAACAUGAGGAUCACCCAUGUCAGAAAUGGCAAGGAUAUAGAAAACAAAAACAAAAACUAGAAGGUGCAAAAC [Meechl SS1 R2 m3],154,84.8
AGAAAAUAUGGGUAGGAUAUAUAAAGAGAAACAUGAGGAUCACCCAUGUAAAGACGAGAGUCAAAAUAGAAGGACUAAAGAAAGAA [Meechl MS2 SS2 2],151,86.2
AGAAAUAAAAGAGAGGAUAUCCAAAAGAAAACAUGAGGAUCACCCAUGUAGACGAAAGUCAAAUGGGAGAAGGCUCAAAAUAAAG [80% More Helter Skelter 2 + Hairpin],98.7,61.4
AGAAAUAAAAUGGAGGAUAUCCAAAAGAAAACAUGAGGAUCACCCAUGUAAAAGAAAAUAAAAUGGGAGAAGGCCAAAAAUAAAG,47.2,23
AGAAGACAUGAGGAUCACCCAUGUGGGAAUAUGGGAGGAUAUACAAAGACGAGAGUCAGAGUAGAAGGCCUAGGAA [salish99-SS1-091(!)],132,33
